T1: human LSR (lipolysis stimulated lipoprotein receptor) (human, UniProt Q86X29 1-649)
T1 construct: Stood on human ovarian cancer cells (RMG-I, OVSAHO, JHOS2, OVISE; endogenous) or on SKOV3-L45 cells made to stably express LSR (construct not described); also called hLSR; human LSR protein (NP_991403.1)
T1 sequence: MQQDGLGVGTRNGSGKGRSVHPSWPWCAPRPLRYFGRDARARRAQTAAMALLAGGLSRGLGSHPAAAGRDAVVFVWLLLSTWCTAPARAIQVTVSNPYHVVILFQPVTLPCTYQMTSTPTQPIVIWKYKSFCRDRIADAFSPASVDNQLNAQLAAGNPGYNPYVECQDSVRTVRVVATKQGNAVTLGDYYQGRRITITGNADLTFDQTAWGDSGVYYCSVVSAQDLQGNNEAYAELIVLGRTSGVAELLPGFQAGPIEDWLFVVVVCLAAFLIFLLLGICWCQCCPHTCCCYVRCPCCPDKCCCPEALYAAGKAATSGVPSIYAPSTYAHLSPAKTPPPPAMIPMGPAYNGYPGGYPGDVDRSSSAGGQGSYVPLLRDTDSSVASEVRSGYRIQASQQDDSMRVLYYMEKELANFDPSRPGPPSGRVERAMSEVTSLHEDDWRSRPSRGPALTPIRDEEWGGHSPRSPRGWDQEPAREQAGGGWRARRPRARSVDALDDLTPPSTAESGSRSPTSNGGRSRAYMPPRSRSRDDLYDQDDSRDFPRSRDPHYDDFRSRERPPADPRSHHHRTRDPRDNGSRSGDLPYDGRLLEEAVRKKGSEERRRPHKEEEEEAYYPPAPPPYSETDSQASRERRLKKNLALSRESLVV

T2: human LSR with a V5/His tag fused to the C-terminal, on the LSR-expressing cell strain (human, UniProt Q86X29 1-649)
T2 construct: In panning Lot 1 a mammalian LSR-expressing cell strain was used whose construct is not described; also called human LSR-expressing chicken cell strain; not shown: V5/His tag of vector pcDNA3.1-V5/His-TOPO
T2 sequence: T1 sequence

B1: anti-LSR mouse/chicken chimeric monoclonal antibody #9-7 (antibody, V domains shown)
VH: AVTLDESGGGLQTPGGALSLVCKASGFTFSDYQMNWVRQAPSKGLEWVAGINGRSSWTDYGAAVKGRATISRDNGQSTVRLQLNNLRAEDTATYYCARGSSIDAWGHGTEVIVST
VL: ALTQPASVSANPGETVKITCSGGGSYYGSYYYGWYQQKSPGSAPVTMIYNNNNRPSNIPSRFSGSLSGSTNTLTITGVQADEAVYYCGSIDSNIAGVFGAGTTLTV
notes: also called anti-LSR antibody 9-7
B2: anti-LSR mouse/chicken chimeric monoclonal antibody #26-2 (antibody, V domains shown)
VH: AVTLDESGGGLQTPGGGLSLVCKGSGFTFSNYEMQWVRQAPGKGLEWVAGISGAGSTTRYGSAVQGRATISRDNGQSTVRLQLNNLRAEDTGTYYCARGSNIDGWGHGTEVIVST
VL: ALTQPSSVSANPGETVKITCSGGGRYAESYYYSWFQQKSPGSAPVTVIYWNDKRPSNIPSRFSGSLSGSTNTLTITGVRAEDEAVYYCGAYEDSSAGFGAGTTLTV
notes: also called No. 26-2; anti-LSR antibody 26-2
B3: anti-LSR mouse/chicken chimeric monoclonal antibody #1-25 (antibody, V domains shown)
VH: AVTLDESGGGLQTPGGALSLVCKASGFDFSSYEMQWVRQAPGKGLEWVTGISGSGSSTRYGSAVKGRATISRDNGQSTVRLQLNNLRAEDTGTYYCARGSTIDAWGHGTEVTVST
VL: ALTQPASVSANPGETVKITCSGGSSYAGSYYYGWYQQKSPGSAPVTVIYYNDQRPSDIPSRFSGSTSGSTATLTITGVQVEDEAVYICGTYEDSGGVFGAGTTLTV
notes: also called No. 1-25; anti-LSR antibody 1-25
B4: anti-LSR mouse/chicken chimeric monoclonal antibody #27-6 (antibody, V domains shown)
VH: B3 VH with T13M, K23R, V37I, T49A, S54A, S57G, T93I, Y95F, G99S, T101N
VL: ALTQPASVSANLGGTVKITCSGGGRYAESYYYGWYQQKSPGSTPVTVIYWNDKRPSNIPSRFSGSLSGSTNTLTITGVQVEDEAVYFCGSYEDSRSAFGAGTTLTV
notes: also called No. 27-6; anti-LSR antibody 27-6
B5: anti-LSR mouse/chicken chimeric monoclonal antibody #1-43 (antibody, V domains shown)
VH: B3 VH with K23E, Y32H, T49A, S54A, K65Q, T101L, T112I
VL: ALTQPASVSANPGETVKITCSGGGSYYGSYYYSWHQQKSPGSAPVTVIYENNQRPSDIPSRFSGSKSGSTATLTITGVQAEDEAVYFCGSYDSSAGLFGAGTTLTV
notes: also called No. 1-43; anti-LSR antibody 1-43
B6: SEQ ID NO 3 (scFv phage antibody clone, anti-LSR antibody 26-2 sequence) (scFv)
scFv: AVTLDESGGGLQTPGGGLSLVCKGSGFTFSNYEMQWVRQAPGKGLEWVAGISGAGSTTRYGSAVQGRATISRDNGQSTVRLQLNNLRAEDTGTYYCARGSNIDGWGHGTEVIVSTGGGGSGGGGSGGGGSDVALTQPSSVSANPGETVKITCSGGGRYAESYYYSWFQQKSPGSAPVTVIYWNDKRPSNIPSRFSGSLSGSTNTLTITGVRAEDEAVYYCGAYEDSSAGFGAGTTLTV
notes: the phage coat protein fusion is not described; also called 26-2 scFv
B7: SEQ ID NO 6 (scFv phage antibody clone, anti-LSR antibody 1-43 sequence) (scFv)
scFv: AVTLDESGGGLQTPGGALSLVCEASGFDFSSHEMQWVRQAPGKGLEWVAGISGAGSSTRYGSAVQGRATISRDNGQSTVRLQLNNLRAEDTGTYYCARGSLIDAWGHGTEVIVSTGGGGSGGGGSGGGGSDVALTQPASVSANPGETVKITCSGGGSYYGSYYYSWHQQKSPGSAPVTVIYENNQRPSDIPSRFSGSKSGSTATLTITGVQAEDEAVYFCGSYDSSAGLFGAGTTLTV
notes: the phage coat protein fusion is not described; also called 1-43 scFv
B8: SEQ ID NO 5 (scFv phage antibody clone, anti-LSR antibody 1-25 sequence) (scFv)
scFv: AVTLDESGGGLQTPGGALSLVCKASGFDFSSYEMQWVRQAPGKGLEWVTGISGSGSSTRYGSAVKGRATISRDNGQSTVRLQLNNLRAEDTGTYYCARGSTIDAWGHGTEVTVSTGGGGSGGGGSGGGGSDVALTQPASVSANPGETVKITCSGGSSYAGSYYYGWYQQKSPGSAPVTVIYYNDQRPSDIPSRFSGSTSGSTATLTITGVQVEDEAVYICGTYEDSGGVFGAGTTLTV
notes: the phage coat protein fusion is not described; also called 1-25 scFv
B9: SEQ ID NO 4 (scFv phage antibody clone, anti-LSR antibody 27-6 sequence) (scFv)
scFv: AVTLDESGGGLQMPGGALSLVCRASGFDFSSYEMQWIRQAPGKGLEWVAGISGAGSGTRYGSAVKGRATISRDNGQSTVRLQLNNLRAEDTGIYFCARSSNIDAWGHGTEVTVSTGGGGSGGGGSGGGGSDVALTQPASVSANLGGTVKITCSGGGRYAESYYYGWYQQKSPGSTPVTVIYWNDKRPSNIPSRFSGSLSGSTNTLTITGVQVEDEAVYFCGSYEDSRSAFGAGTTLTV
notes: the phage coat protein fusion is not described; also called 27-6 scFv

Residue numbers refer to the chain shown, from its start.

Here are results for 9 molecules from patent publication US10174111 (NATIONAL UNIVERSITY CORPORATION KOCHI UNIVERSITY, dated 2019).

One test addresses T1, human LSR (lipolysis stimulated …). Briefly: FACS on RMG-I cells stained with various antibody concentrations, goat anti-mouse IgG-FITC, fit in GraphPad Prism. On the procedure: Then, using an anti-LSR antibody (#1-25 or #9-7), immunohistochemical staining for LSR was carried out according to the ABC method. In the ovary serous adenocarcinoma tissue and the endometrial cancer tissue, LSR was highly expressed at the tumor sites. Immunohistochemical Staining Using Normal Frozen Tissue Array FDA standard human tissue microarrays (T6234701-2, Biochain) were immunohistochemically stained using the anti-LSR antibody #1-25. […] Calculation of Binding Constant Various concentration of various anti-LSR antibodies were reacted with RMG-I cells and they were stained using goat anti-mouse IgG-FITC (Southern Biotech, Birmingham, Ala., USA) and analyzed by a FACSCanto® II cytometer (Becton Dickinson). With regard to the fluorescence intensity of FITC, a KD value was analyzed using GraphPad Prism® Software Version 6.0 for Windows (GraphPad Software Inc., San Diego, Calif., USA). When the binding ability of the made LSR antibodies was analyzed by FACS®, antibodies having a high binding ability were obtained. The following analysis was carried out using two kinds of clones having the highest binding ability in them (FIG. 37B). […] Cell Cycle Analysis Ovarian clear cell adenocarcinoma (RMG-I) was seeded into a 6-well plate at 15,000 cells/well and incubated in a CO_2 incubator at 37° C. overnight. The culture supernatant was discarded and 100 µg/ml anti-LSR antibody or mouse IgG2a diluted with RPMI 1640 medium (containing 1% FBS and 1% penicillin-streptomycin) was added at 2 mL/well for each. After 96 hours, cell cycle analysis was carried out using the Cycle Test Plus® DNA Reagent kits (BD Biosciences). Western Blot Ovarian clear cell adenocarcinoma (RMG-I) was seeded into a 6-well plate at 15,000 cells/well and incubated in a CO_2 incubator at 37° C. overnight. The culture supernatant was discarded and 100 µg/ml anti-LSR antibody or mouse IgG2a diluted with RPMI 1640 medium (containing 1% FBS and 1% penicillin-streptomycin) was added at 2 mL/well for each.
For orientation: Kd means the concentration at which binding is half-saturated. Molecule B1 yielded a Kd of 2.52 nM. Regarding B2, the affinity, expressed as Kd, was 4.04 nM. Compared with the last molecule, the Kd is about 1.6-fold higher. On to B3, for which binding was put at a Kd of 2.03 nM. Still for that read-out and setting: under B4 stands 4.29 nM. Same read-out and setting: under B5 stands 24.6 nM.

The target in the next test is T2, human LSR with a V5/His tag fused to …. Description: cell panning of the scFv phage library on the LSR-expressing cell strain, reactivity confirmed by FACS, positive phage clones selected. On the procedure: The scFv phage antibody library was added to a non-LSR-expressing cell strain to carry out absorption operation of nonspecific phages, and then was reacted with a LSR-expressing cell strain. In Lot 1, a mammalian cell strain was used and in Lot 2, cell panning was carried out using the chicken lymphoblast-like cell strain used for immunization. After washing with organic solvent, phages specifically binding to the LSR-expressing cell strain were recovered and then *Escherichia coli* were infected with it. Panning was carried out four times and then the reactivity of the library was confirmed by FACS analysis using the LSR-expressing cell strain. Phages from a library of which the reactivity had most increased were cloned, positive clones were selected, and then the sequences of six types of clones were determined (SEQ ID NOs: 1 to 6 and FIG. 9). For cell panning, a method described in "Giordano et al., Nat Med. 2001 November; 7(11): 1249-53" was followed.
A general note: In flow cytometry, cells or beads pass a laser one at a time.
On to B6, for which the binding result is “binds”. Same read-out and setting: the entry for B7 is “binds”. Same read-out and setting: the entry for B8 is “binds”.

Regarding B9, the binding result is listed as “binds”.
